From article PMC7962484 (RNA, 2021) come the findings set out here.

One experiment addresses T1, Nop1^83–321 (S. cerevisiae, UniProt P15646 83-321).
T1 sequence (looked up): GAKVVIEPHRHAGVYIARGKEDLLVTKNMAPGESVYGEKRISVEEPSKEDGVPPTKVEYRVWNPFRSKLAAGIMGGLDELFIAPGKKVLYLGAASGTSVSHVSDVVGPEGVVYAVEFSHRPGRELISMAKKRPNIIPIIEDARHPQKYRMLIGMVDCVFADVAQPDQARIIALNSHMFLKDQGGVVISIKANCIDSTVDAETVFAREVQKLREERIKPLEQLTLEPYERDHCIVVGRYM
As to the kind of experiment: SEC.

The next experiment deals with T2, Sc Nop1^83–327 (S. cerevisiae, UniProt P15646 83-327).
T2 sequence (looked up): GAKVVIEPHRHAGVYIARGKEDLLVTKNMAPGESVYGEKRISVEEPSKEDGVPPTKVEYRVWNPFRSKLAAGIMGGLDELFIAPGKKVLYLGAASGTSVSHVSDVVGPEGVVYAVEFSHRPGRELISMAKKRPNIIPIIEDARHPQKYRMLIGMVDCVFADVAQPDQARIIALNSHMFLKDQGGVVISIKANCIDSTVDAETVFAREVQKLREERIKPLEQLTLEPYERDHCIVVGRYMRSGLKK
The experiment is described as follows: SEC.

B1: Sc Nop56^1–166 (domain or fragment, S. cerevisiae, UniProt Q12460 1-166, looked up)
chain: MAPIEYLLFEEPTGYAVFKVKLQQDDIGSRLKEVQEQINDFGAFTKLIELVSFAPFKGAAEALENANDISEGLVSESLKAILDLNLPKASSKKKNITLAISDKNLGPSIKEEFPYVDCISNELAQDLIRGVRLHGEKLFKGLQSGDLERAQLGLGHAYSRAKVKFS
B1: the binding result with Nop1^83–321 is given as “binds”.

B2: Nop56^1–166-Q35A/N39A (domain or fragment, S. cerevisiae, UniProt Q12460 1-166, looked up)
chain: MAPIEYLLFEEPTGYAVFKVKLQQDDIGSRLKEVAEQIADFGAFTKLIELVSFAPFKGAAEALENANDISEGLVSESLKAILDLNLPKASSKKKNITLAISDKNLGPSIKEEFPYVDCISNELAQDLIRGVRLHGEKLFKGLQSGDLERAQLGLGHAYSRAKVKFS
B2: the binding result with Sc Nop1^83–327 is on record as “binds”.

B3: Sc Nop56^1–166-L147W/E148F (domain or fragment, S. cerevisiae, UniProt Q12460 1-166, looked up)
chain: MAPIEYLLFEEPTGYAVFKVKLQQDDIGSRLKEVQEQINDFGAFTKLIELVSFAPFKGAAEALENANDISEGLVSESLKAILDLNLPKASSKKKNITLAISDKNLGPSIKEEFPYVDCISNELAQDLIRGVRLHGEKLFKGLQSGDWFRAQLGLGHAYSRAKVKFS
With B3, the binding result in the experiment with Sc Nop1^83–327 is recorded as “binds”.
